Two molecules from patent US20120041175A1 (ROCKEFELLER UNIVERISTY, published 2012) can be followed below.

The labels stand for the following.
B2: Beclin 1-EGFP (fusion of mouse Beclin 1 and EGFP at the C-terminus) (other)
chain: MEGSKASSSTMQVSFVCQRCSQPLKLDTSFKILDRVTIQELTAPLLTTAQAKPGETQEEEANSGEEPFIETRQDGVSRRFIPPARMMSTESANSFTLIGEASDGGTMENLSRRLKVTGDLFDIMSGQTDVDHPLCEECTDTLLDQLDTQLNVTENECQNYKRCLEILEQMNEDDSEQLQRELKELALEEERLIQELEDVEKNRKVVAENLEKVQAEAERLDQEEAQYQREYSEFKRQQLELDDELKSVENQVRYAQIQLDKLKKTNVFNATFHIWHSGQFGTINNFRLGRLPSVPVEWNEINAAWGQTVLLLHALANKMGLKFQRYRLVPYGNHSYLESLTDKSKELPLYCSGGLRFFWDNKFDHAMVAFLDCVQQFKEEVEKGETRFCLPYRMDVEKGKIEDTGGSGGSYSIKTQFNSEEQWTKALKFMLTNLKWGLAWVSSQFYNK
notes: Expressed from a BAC transgene in beclin 1-/-; also called Beclin 1-GFP; not shown: EGFP inserted at the C-terminus in place of the stop codon

The target in experiment [1] is B2. Briefly: anti-GFP affinity isolation of Beclin 1-EGFP from mouse tissues, mass spectrometry. How it is done:
(§1) Rubicon contains an N-terminal RUN (for RPIP8, UNC-14 and NESCA) domain, a C-terminal cysteine-rich domain, and a CCD domain in the central of the protein sequence. (D and E) HEK 293T cells were transfected with either N-terminal FLAG-tagged […] or C-terminal EGFP-tagged (E) ATG14L or Rubicon. Immunoprecipitation was performed with anti-FLAG (D) or anti-GFP antibody (E). The endogenous Beclin 1 co-immunoprecipitated were detected by Western blot analysis using anti-Beclin 1 antibody. WCL represents whole cell lysate, and IP represents immunoprecipitated.
(§2) Affinity purification of Beclin 1 interacting proteins and mass spectrometric identification of these proteins were carried out as described in Wang et al. (2006), with slight modification. In brief, tissue extracts were obtained from both beclin 1^{+/-} and beclin 1^{-/-}; beclin 1-GFP/+ mice at 4 month of age by homogenizing 2 brains or 1 liver with a motor-driven homogenizer (speed 2.5, 12 strokes) in 4 ml buffer containing 0.32 M sucrose, 1 mM NaHCO₃, 20 mM HEPEs/pH 7.4, 1 mM MgCl₂, 0.25 mM CaCl₂, EDTA-free protease inhibitor cocktail, 200 μg/mL PMSF, pepstatin 4 μg/mL, and DNase I. The tissue extracts were centrifuged at 1,400 g for 10 minutes and the pellets were homogenized again in 4 ml buffer for 8 strokes and centrifuged again. Supernatants from the two homogenization steps were pooled, centrifuged at 750 g for 10 minutes. […]

The target of experiment [2] is nPIST (endogenous, mouse tissue) (mouse, UniProt Q8BH60 2-463). The description is as above. Here is the method:
as §1, §2

B1: Bif1 (endogenous, mouse tissue) (other, UniProt Q9JK48 1-365, looked up)
chain: MNIMDFNVKKLAADAGTFLSRAVQFTEEKLGQAEKTELDAHLENLLSKAECTKIWTEKIMKQTEVLLQPNPNARIEEFVYEKLDRKAPSRINNPELLGQYMIDAGTEFGPGTAYGNALIKCGETQKRIGTADRELIQTSALNFLTPLRNFIEGDYKTIAKERKLLQNKRLDLDAAKTRLKKAKAAETKSSSEQELRITQSEFDRQAEITRLLLEGISSTHAHHLRCLNDFVEAQMTYYAQCYQYMLDLQKQLGSFPSNYLSNNNQTSGTPVPYALSNAIGPSAQASTGSLVITCPSNLNDLKESSNNRKARVLYDYDAANSTELSLLADEVITVFSVVGMDSDWLMGERGNQKGKVPITYLELLN
As for B1, the binding result in experiment [1] is on record as “no binding”.

Regarding B2, the binding result in experiment [2] is “no binding”.
